We go through two molecules from paper PMC8835842, “YdfD, a Lysis Protein of the Qin Prophage, Is a Specific Inhibitor of the IspG-Catalyzed Step in the MEP Pathway of Escherichia coli” (International Journal of Molecular Sciences, 2022).

First the molecules themselves.
B1: IspG-His (enzyme, E. coli BL21(DE3), UniProt P62620 1-372, looked up)
chain: MHNQAPIQRRKSTRIYVGNVPIGDGAPIAVQSMTNTRTTDVEATVNQIKALERVGADIVRVSVPTMDAAEAFKLIKQQVNVPLVADIHFDYRIALKVAEYGVDCLRINPGNIGNEERIRMVVDCARDKNIPIRIGVNAGSLEKDLQEKYGEPTPQALLESAMRHVDHLDRLNFDQFKVSVKASDVFLAVESYRLLAKQIDQPLHLGITEAGGARSGAVKSAIGLGLLLSEGIGDTLRVSLAADPVEEIKVGFDILKSLRIRSRGINFIACPTCSRQEFDVIGTVNALEQRLEDIITPMDVSIIGCVVNGPGEALVSTLGVTGGNKKSGLYEDGVRKDRLDNNDMIDQLEARIRAKASQLDEARRIDVQQVEK
notes: ispG amplified from the E. coli BL21(DE3) genome; also called His-tagged ispG; GcpE; source: E. coli BL21(DE3); coexpressed with YdfD constructs, in lysate; and purified (Ni-NTA, Superdex 200)
B2: YdfD (MBP tag cleaved) (natural protein, E. coli BL21(DE3), UniProt P29010 1-63, looked up)
chain: MNSAFVLVLTVFLVSGEPVDIAVSVHRTMQECMTAATEQKIPGNCYPVDKVIHQDNIEIPAGL
notes: YdfD, lysis protein of the Qin cryptic prophage, 63 amino acids; ydfD amplified from the E. coli BL21(DE3) genome; No truncation is told for this construct; source: E. coli BL21(DE3), purified as MBP-YdfD (amylose resin), MBP cleaved by PreScission protease; not shown: MBP, N-terminal, cleaved

In assay [1] the target is B2. The assay is described as follows: ITC; IspG (1.1 mM) injected into YdfD in the cell, 2 μL injections at 120 s spacing, 25 °C, 20 mM Tris, 150 mM NaCl, pH 8.0; one-site binding fit. To be noted: both partners purified. (ITC needs no label: the signal is the heat of the interaction.)
Assay [2] concerns the target B1. The assay is described as above. To be noted: both partners purified.

On to B1, for which, in assay [1], the dH amounted to 1.57 kcal/mol and the stoichiometry N (in general, a count of units in the complex or per binding partner) was 0.63. With B2, the equilibrium dissociation constant (Kd) (commonly the concentration at which binding is half-saturated) in assay [2] came out at 18.4 µM.
